IC50, stimulation of β-galactosidase activity in SK-N-MC/β-gal cells, EC50 and induction of β-galactosidase activity in SK-N-MC/β-gal cells, EC50 data for 2 substances are collected here from patent EP1789452B1, “RELAXIN-CHIMERIC POLYPEPTIDES AND THEIR PREPARATION AND USE” (Janssen Pharmaceutica NV, priority 2004, dated 2006).

One may read the IC50 as the concentration that gives 50% inhibition. Low values mean greater potency, high ones weaker potency.

Some results are limits rather than exact numbers.

For one test, the target named is rat LGR7 (rat) (UniProt Q6R6I6). Kind of test: competition with 100 pM [125I] human relaxin-2, COS-7 membranes with rat LGR7.
Chain of rat LGR7 (rat) (Q6R6I6 whole entry): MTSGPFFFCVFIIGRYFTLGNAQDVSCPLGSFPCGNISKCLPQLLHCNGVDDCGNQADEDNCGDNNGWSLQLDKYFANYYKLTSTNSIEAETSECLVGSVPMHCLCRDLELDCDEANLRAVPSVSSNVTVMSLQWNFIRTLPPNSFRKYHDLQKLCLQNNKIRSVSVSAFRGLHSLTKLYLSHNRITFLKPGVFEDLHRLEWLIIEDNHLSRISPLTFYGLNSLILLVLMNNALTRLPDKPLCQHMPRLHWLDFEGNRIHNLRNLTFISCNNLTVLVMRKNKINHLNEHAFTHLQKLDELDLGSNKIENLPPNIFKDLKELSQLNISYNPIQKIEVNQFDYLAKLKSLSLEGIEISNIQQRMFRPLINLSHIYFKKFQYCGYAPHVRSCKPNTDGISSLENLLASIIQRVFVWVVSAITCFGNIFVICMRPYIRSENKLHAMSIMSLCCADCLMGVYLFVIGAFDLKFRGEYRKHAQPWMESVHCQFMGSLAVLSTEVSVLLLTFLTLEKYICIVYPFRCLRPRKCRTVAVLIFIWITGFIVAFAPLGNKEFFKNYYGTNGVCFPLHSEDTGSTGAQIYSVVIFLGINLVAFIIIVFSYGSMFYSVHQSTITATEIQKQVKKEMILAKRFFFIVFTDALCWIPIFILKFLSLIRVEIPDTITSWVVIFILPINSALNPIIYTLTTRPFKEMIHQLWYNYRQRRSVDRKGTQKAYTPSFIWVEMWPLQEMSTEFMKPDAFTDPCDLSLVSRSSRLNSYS
The target in another test is rat GPCR135 (rat) (UniProt Q5Y987). Kind of test: competition with 100 pM [125I] human R3, COS-7 membranes with rat GPCR135.
Chain of rat GPCR135 (rat) (Q5Y987 entry or part of it): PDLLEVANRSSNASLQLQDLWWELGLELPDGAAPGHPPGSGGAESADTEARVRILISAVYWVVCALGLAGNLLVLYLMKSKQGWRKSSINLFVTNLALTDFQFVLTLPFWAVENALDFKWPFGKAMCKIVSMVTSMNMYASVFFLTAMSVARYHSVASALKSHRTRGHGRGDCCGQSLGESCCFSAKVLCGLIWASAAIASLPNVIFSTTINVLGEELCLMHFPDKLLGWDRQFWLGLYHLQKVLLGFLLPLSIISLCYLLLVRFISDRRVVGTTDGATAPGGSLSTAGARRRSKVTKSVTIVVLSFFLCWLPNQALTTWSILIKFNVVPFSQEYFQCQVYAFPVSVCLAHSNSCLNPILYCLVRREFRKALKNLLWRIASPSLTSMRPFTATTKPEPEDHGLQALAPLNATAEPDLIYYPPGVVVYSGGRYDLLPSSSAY
The target of another test is human LGR7 (human) (UniProt Q9HBX9). The experiment in a line: cell-based or functional assay.
Chain of human LGR7 (human) (Q9HBX9 whole entry): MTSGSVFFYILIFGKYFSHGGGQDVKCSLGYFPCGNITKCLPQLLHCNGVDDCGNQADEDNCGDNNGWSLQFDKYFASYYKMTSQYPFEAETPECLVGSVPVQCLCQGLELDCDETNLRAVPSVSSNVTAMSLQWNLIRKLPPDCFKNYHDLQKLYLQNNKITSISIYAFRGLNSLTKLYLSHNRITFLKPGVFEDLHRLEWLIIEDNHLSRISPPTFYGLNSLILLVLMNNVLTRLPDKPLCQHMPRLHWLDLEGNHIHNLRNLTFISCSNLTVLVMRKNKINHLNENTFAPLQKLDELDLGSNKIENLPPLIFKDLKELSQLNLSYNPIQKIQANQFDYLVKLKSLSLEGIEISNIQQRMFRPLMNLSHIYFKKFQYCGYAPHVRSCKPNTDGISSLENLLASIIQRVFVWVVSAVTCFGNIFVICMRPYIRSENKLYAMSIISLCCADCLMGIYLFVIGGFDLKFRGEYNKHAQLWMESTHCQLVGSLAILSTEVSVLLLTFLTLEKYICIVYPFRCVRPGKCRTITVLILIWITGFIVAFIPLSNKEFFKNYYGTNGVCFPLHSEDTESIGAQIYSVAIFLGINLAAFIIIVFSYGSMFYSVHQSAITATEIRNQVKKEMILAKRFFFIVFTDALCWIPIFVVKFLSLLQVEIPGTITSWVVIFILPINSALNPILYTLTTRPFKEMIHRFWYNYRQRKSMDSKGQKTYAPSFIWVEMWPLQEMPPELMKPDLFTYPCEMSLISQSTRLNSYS
The next test concerns the target human LGR8 (human) (UniProt Q8WXD0). Kind of test: cell-based or functional assay.

Chain of human LGR8 (human) (Q8WXD0 whole entry): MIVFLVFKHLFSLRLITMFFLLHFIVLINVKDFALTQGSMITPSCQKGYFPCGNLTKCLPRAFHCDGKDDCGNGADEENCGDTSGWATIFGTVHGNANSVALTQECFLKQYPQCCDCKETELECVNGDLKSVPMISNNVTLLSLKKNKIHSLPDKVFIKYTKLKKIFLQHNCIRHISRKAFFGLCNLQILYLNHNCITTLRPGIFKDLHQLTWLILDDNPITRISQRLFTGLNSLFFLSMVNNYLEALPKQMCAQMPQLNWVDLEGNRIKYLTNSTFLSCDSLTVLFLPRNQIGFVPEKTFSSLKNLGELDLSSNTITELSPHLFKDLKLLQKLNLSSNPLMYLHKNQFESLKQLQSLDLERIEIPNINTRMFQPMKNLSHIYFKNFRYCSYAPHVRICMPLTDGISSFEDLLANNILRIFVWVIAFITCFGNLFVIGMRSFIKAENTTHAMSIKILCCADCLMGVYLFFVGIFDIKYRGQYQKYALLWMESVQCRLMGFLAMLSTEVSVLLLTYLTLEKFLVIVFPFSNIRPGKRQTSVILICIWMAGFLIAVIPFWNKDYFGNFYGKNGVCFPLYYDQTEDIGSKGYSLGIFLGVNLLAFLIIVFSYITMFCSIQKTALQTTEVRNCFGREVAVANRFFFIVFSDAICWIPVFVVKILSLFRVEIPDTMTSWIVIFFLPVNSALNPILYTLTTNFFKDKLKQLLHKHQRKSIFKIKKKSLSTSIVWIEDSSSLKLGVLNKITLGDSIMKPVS

As for “human relaxin (R1) (from UniProt P04808 26-53; P04808 162-185) (ligand)”, the concentration for half-maximal inhibition (IC50) was 0.2 nM with rat LGR7 (rat) and above 1000 nM with rat GPCR135 (rat).
On to “porcine relaxin (from UniProt P01348 25-56; P01348 161-182) (ligand)”, for which, in the test with human LGR7 (human), the stimulation of β-galactosidase activity in SK-N-MC/β-gal cells, EC50 is 0.25 nM. Further, in the test with human LGR8 (human), the induction of β-galactosidase activity in SK-N-MC/β-gal cells, EC50 is 1.5 nM.
